The record followed here is publication doi:10.1101/671792 (bioRxiv, 2019).

The chains are these.
B1: TFG-1 (Trk-fused gene 1) PB1 domain, residues 1-95 (domain or fragment)
chain: MNGQLDLSGKLIIKAQLGEDIRRIPIHNEDITYDELVLMMQRVFRGKLLSNDEVTIKYKDEDGDLITIFDSSDLSFAIQCSRILKLTLFVNGQPR
B2: MBP-tagged wild-type AtNBR1-PB1 (domain or fragment)
chain: MESTANALVVKVSYGGVLRRFRVPVKANGQLDLEMAGLKEKIAALFNLSADAELSLTYSDEDGDVVALVDDNDLFDVTNQRLKFLKINVNAGVST
B3: Arabidopsis thaliana NBR1 PB1 domain, residues 1-95 (domain or fragment)
chain: B2 chain
B4: p62/SQSTM1 PB1 domain, residues 1-102 (domain or fragment)
chain: MASLTVKAYLLGKEDAAREIRRFSFCCSPEPEAEAEAAAGPGPCERLLSRVAALFPALRPGGFQAHYRDEDGDLVAFSSDEELTMAMSYVKDDIFRIYIKEK

The data set “sedimentation” concerns the molecule itself. In words: sedimentation.
The target of data set [1] is B3. In words: pull-down.

In the case of B1, the binding result in the data set “sedimentation” is reported as “binds”.
With B2, the binding result in data set [1] is given as “binds”.
B3: the binding result in “sedimentation” is reported as “binds”.
For B4, in the data set “sedimentation”, the binding result is on record as “binds”.
